# Measurements as given in patent US20190091326A1.
# Columns and labels:
# [1] = molecular target: 108060 V1/V2 scaffold, wildtype, gD-tagged, produced in GnTI- 293 HEK cells (herpes simplex virus 1; HIV-1 isolate 108060); test: ELISA; table row 108060 V1/V2 wt, GnTI-
# ZM197 V1/V2 wt (GnTI-) = test: ELISA; table row ZM197 V1/V2 wt, GnTI-
# [2] = molecular target: 1209 V1/V2/V3/C3 scaffold grown in GnTI- cells; test: ELISA, mAb titrated on scaffold, absorbance 492 nm; curve 505 (1209 GNTI-)
# [3] = molecular target: ZM233 V1/V2 scaffold, wildtype, gD-tagged, produced in normal 293 HEK cells (herpes simplex virus 1; HIV-1 isolate ZM233); test: ELISA; table row ZM233 V1/V2 wt, column 293
# [4] = molecular target: 108060 I169K/E172V/T161M/N156I/S164G/D167G V1/V2 scaffold, gD-tagged, produced in normal 293 HEK cells (herpes simplex virus 1; HIV-1 isolate 108060); test: ELISA; table row 108060 V1/V2.eng1*, column 293
# [5] = molecular target: ZM233 V1/V2 scaffold, engineered, Strep-tag/6x Histidine-tag, expressed in normal 293 cells (HIV-1 isolate ZM233); test: SPR (Biacore 3000), PG9 captured on anti-human Fc, scaffold flowed, 1:1 Langmuir fit
# [6] = molecular target: A244 V1/V2 scaffold, engineered, Strep-tag/6x Histidine-tag, produced in normal 293 cells (HIV-1 isolate A244); test: as above
# [7] = molecular target: 108060 I169K/E172V/T161M/N156I/S164G/D167G V1/V2 scaffold, gD-tagged, produced in GnTI- 293 HEK cells (herpes simplex virus 1; HIV-1 isolate 108060); test: capture ELISA on 34.1 anti-gD; purified scaffold made in GnTI- cells
# [8] = molecular target: MN V1/V2 scaffold, engineered, gD-tagged, produced in GnTI- 293 HEK cells (herpes simplex virus 1; HIV-1 isolate MN); test: as above
# [9] = molecular target: JRFL-E168K V1/V2 scaffold, engineered, gD-tagged, produced in GnTI- 293 HEK cells (herpes simplex virus 1; HIV-1 isolate JRFL); test: as above
# [10] = molecular target: 108060 I169K/E172V/T161M/N156I/S164P/L165G V1/V2 scaffold, gD-tagged, produced in GnTI- 293 HEK cells (herpes simplex virus 1; HIV-1 isolate 108060); test: as above
# [11] = molecular target: ZM109 V1/V2 scaffold, wildtype, gD-tagged, produced in GnTI- 293 cells (herpes simplex virus 1; HIV-1 isolate ZM109); test: ELISA; table row ZM109 V1/V2 wt, GnTI-
# [12] = molecular target: ZM233 V1/V2 scaffold, engineered, Strep-tag/6x Histidine-tag, expressed in normal 293 cells (HIV-1 isolate ZM233); test: SPR (Biacore 3000), PG9 captured by anti-human Fc, scaffold flowed, 1:1 Langmuir fit
# [13] = molecular target: A244 V1/V2 scaffold, engineered, Strep-tag/6x Histidine-tag, produced in normal 293 cells (HIV-1 isolate A244); test: as above
# [14] = molecular target: MN V1/V2 scaffold, mutant, Strep-tag/6x Histidine-tag, expressed in 293F cells (HIV-1 isolate MN) (UniProt P05877); test: as above
# [15] = molecular target: 108060 V1/V2 scaffold, mutant, Strep-tag/6x Histidine-tag, expressed in 293F cells (HIV-1 isolate 108060); test: as above
# CAP.45 V1/V2 wt (GnTI-) = test: ELISA; table row CAP.45 V1/V2 wt, GnTI-
# [16] = molecular target: 108060 I169K/E172V/T161M/N156I V1/V2 scaffold, gD-tagged, produced in GnTI- 293 HEK cells (herpes simplex virus 1; HIV-1 isolate 108060); test: ELISA; table row 108060 I169K/E172V/T161M/N156I, GnTI-
# [17] = molecular target: A244 V1/V2 scaffold, engineered, Strep-tag/6x Histidine-tag, produced in normal 293 cells (HIV-1 isolate A244); test: SPR (Biacore 3000), PG9 captured by anti-human Fc, scaffold flowed
# [18] = molecular target: A244 V1/V2 scaffold, wildtype (unmutated), Strep-tag/6x Histidine-tag, expressed in GnTI- cells (HIV-1 isolate A244); test: as above
# [19] = molecular target: 108060 I169K/E172V/T161M/N156I/S164P/L165G V1/V2 scaffold, gD-tagged, produced in normal 293 HEK (293F) cells (herpes simplex virus 1; HIV-1 isolate 108060); test: capture ELISA on 34.1 anti-gD; purified scaffold made in 293F cells
# [20] = molecular target: ZM233 V1/V2 scaffold, wildtype, gD-tagged, produced in GnTI- 293 HEK cells (herpes simplex virus 1; HIV-1 isolate ZM233); test: capture ELISA on 34.1 anti-gD; scaffold in medium of GnTI- cells
# [21] = molecular target: A244 V1/V2 scaffold, wildtype, gD-tagged, produced in GnTI- 293 HEK cells (herpes simplex virus 1; HIV-1 isolate A244) (UniProt Q69091); test: as above
# [22] = molecular target: 108060 I169K/E172V V1/V2 scaffold, gD-tagged, produced in normal 293 HEK cells (herpes simplex virus 1; HIV-1 isolate 108060); test: ELISA; table row 108060 V1/V2 I169K/E172V, column 293
substance,measurement,setting,value
PG9 monoclonal antibody,EC50,[1],> 10 µg/mL
same,EC50,ZM197 V1/V2 wt (GnTI-),0.0303 µg/mL
same,EC50,[2],0.14 µg/mL
same,EC50,[3],0.077 µg/mL
same,EC50,[4],0.093 µg/mL
same,koff,[5],0.0023 s⁻¹
same,kon,[5],40000 M⁻¹ s⁻¹
same,kon,[6],40000 M⁻¹ s⁻¹
same,EC50,[7],6.8 ng/mL
same,EC50,[8],7.9 ng/mL
same,EC50,[9],0.013 µg/mL
same,EC50,[10],8.34 ng/mL
same,EC50,[11],0.0143 µg/mL
same,Kd,[12],33 nM
same,Kd,[13],49 nM
same,Kd,[14],118 nM
same,Kd,[15],74 nM
same,EC50,CAP.45 V1/V2 wt (GnTI-),0.0527 µg/mL
same,EC50,[16],0.0281 µg/mL
same,koff,[17],0.0019 s⁻¹
same,koff,[18],0.00077 s⁻¹
same,EC50,[19],0.156 µg/mL
same,EC50,[20],9.5 ng/mL
same,EC50,[21],0.74 ng/mL
same,EC50,[22],> 10 µg/mL
